# In patent US20220306729A1 (published 2022):
# Columns and labels:
# [1] = molecular target: T1, DENV4 EDIII, polyhistidine-AviTag (Dengue virus 4, UniProt P09866 576-673); test: cross-reactivity ELISA on EDIII proteins
# T1 construct: domain: EDIII
# [2] = molecular target: T2, DENV3 EDIII, polyhistidine-AviTag (Dengue virus 3, UniProt Q6YMS4 575-672); test: cross-reactivity ELISA on EDIII proteins
# T2 construct: domain: EDIII
# [3] = molecular target: WNV EDIII, polyhistidine-AviTag (West Nile virus); test: cross-reactivity ELISA on EDIII proteins
# [4] = molecular target: ZIKV E protein on infectious virus, 2015 Puerto Rican PRVABC59 strain (Zika virus, strain PRVABC59); test: cell-based or functional assay
# [5] = molecular target: ZIKV E protein (African strain MR766) on reporter viral particles (Zika virus, strain MR766, UniProt Q32ZE1 291-790); test: cell-based or functional assay
# [6] = molecular target: DENV1 E protein (strain PUO-359) on reporter viral particles or infectious virus (Dengue virus 1, strain PUO-359); test: cell-based or functional assay
# [7] = molecular target: T3, DENV1 EDIII, polyhistidine-AviTag, made in HEK-293-6E cells (Dengue virus 1 (NC_001477)); test: ELISA on EDIII (Table A)
# T3 construct: also called EDIII of DENV1
# [8] = molecular target: WNV EDIII, polyhistidine-AviTag (West Nile virus); test: ELISA on EDIII (Table A)
# [9] = molecular target: T4, ZIKV envelope domain III ([..]), polyhistidine-AviTag, made in HEK-293-6E cells (Zika virus (KJ776791)); test: ELISA on ZIKV EDIII (Table A)
# T4 construct: also called ZEDIII; ZIKV EDIII
# T3 sequence (P17763 577-674, tags left off): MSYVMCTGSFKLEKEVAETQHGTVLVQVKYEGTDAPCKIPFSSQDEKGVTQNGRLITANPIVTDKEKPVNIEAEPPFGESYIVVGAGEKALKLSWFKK
# ZIKV E protein (African strain MR766) on reporter viral particles, sequence (Q32ZE1 291-790 limits assumed): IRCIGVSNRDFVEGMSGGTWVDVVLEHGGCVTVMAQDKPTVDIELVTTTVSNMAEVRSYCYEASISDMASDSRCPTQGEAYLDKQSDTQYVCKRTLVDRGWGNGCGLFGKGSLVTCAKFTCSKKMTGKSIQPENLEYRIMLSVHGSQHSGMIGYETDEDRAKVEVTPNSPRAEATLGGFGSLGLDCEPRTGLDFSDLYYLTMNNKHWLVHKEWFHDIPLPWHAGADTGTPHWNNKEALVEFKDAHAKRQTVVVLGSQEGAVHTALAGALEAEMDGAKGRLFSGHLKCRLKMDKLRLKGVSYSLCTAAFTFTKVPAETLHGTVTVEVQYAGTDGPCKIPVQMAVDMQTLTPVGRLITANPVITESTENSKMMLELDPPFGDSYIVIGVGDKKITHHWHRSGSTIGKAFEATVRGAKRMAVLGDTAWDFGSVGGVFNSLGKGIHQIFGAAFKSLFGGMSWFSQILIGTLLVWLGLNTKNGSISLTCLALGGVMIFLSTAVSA
Binder,binding result [1],binding result [2],binding result [3],other results
"Z006 (MEX105_42) (antibody, V domains shown) VH: EVQLLESGGGLVQPGGSLRLSCAASGFTFKNYAMAWVRQAPGKGLEWVSLLYNSEESTYYADSVKGRFTISRDNSKNTLFLQMNRLRVEDTAVYFCVRDRSNGWSSINLWGRGTLVTVSS VL: DIQMTQSPSTLSASVGDRVTMTCRASQTISGWLAWYQQKPGKAPKLLIYQASRLESGIPSRFSGSGSGTEFTLTISSLQPDDVATYYCQQYSTFWTFGLGTKVEIK",no binding (tested: 10 µg/ml),no binding (tested: 10 µg/ml),no binding (tested: 10 µg/ml),–
"Z010 (MEX105_88) (antibody, V domains shown) VH: EVQLLESGGGLVQPGGSLRLSCAASGFTFSNYAMAWVRQAPGKGLEWVSLIYSGDDSTYYADFVKGRFTISRHNSKNTLSLQMNSLRAEDTAIYYCVKDRGTGWSSIVHWGQGTLVTVSS VL: DIQMTQSPSTLSASVGDRVTITCRASQTISNWLAWYQQKPGKAPKLLIYQASSLESGVPSRFSGSGSGTEFTLTISSLQPDDFATYYCQQYSTYWTFGQGTKVEIK",no binding (tested: 10 µg/ml),no binding (tested: 10 µg/ml),no binding (tested: 10 µg/ml),–
"Z038 (BRA12_2) (antibody, V domains shown, also called BRA12_02) VH: EVQLLESGGGLVQPGGSLRLSCEASGFTFSNYAMNWVRQAPGKGLEWVSTLGATDNSGDSTYYVESAKGRFTISRDNSKNTLYLQMNSLRVEDTAVYFCAKDRTGNIGAGTGYFDKWGQGTLVTVSS VL: DIQMTQSPSTLSASVGDRVTITCRASHRISGWLAWYQQKPGKAPKLLIYQASGLESGVPSRFSGSGYGTEFTLTISSLQADDFATYYCQQYNNYPWTFGQGTKVEIK",no binding (tested: 10 µg/ml),no binding (tested: 10 µg/ml),no binding (tested: 10 µg/ml),–
"Z031 (BRA112_46) (antibody, V domains shown) VH: EVQLLESGGGLVQPGGSLRLSCVASGFTFGSYGMAWVRQAPGKGLEWISSISSIDPSTYYADSVKGRFTVSRDNSENTLYLHMSSLKVEDTAVYFCAKDRLNGGFGELFASWGQGTLVTVSS VL: DIQMTQSPSTLSASVGDSVTITCRASQSISSWLAWYQQKPGKAPKFLIHKASSLESGIPSRFSGSGSGTEFTLTINNLQPDDFATYYCQHYHSYPWTFGQGTKVEIK",no binding (tested: 10 µg/ml),no binding (tested: 10 µg/ml),no binding (tested: 10 µg/ml),–
"Z021 (MEX84_p4-23) (antibody, V domains shown) VH: QVQLQESGPGLVKPSETLSLTCTVSGGSIDTYYWSWIRQTPGKGLEWIGCFYYSVDNHFNPSLESRVTISVDTSKNQFSLKMTSMTASDTAVYYCARNQPGGRAFDYWGPGTLVTVSS VL: EIVLTQSPATLSLSPGQRATLSCRASQSVSNYFAWYQQKPGQAPRLLIYDTSKRATGTPARFSGSGSGTDFTLTISSLEPEDFAVYYCQERNNWPLTWTFGLGTKVEIK",–,–,–,"IC50, plaque reduction neutralization assay (PRNT) [4]: 4 ng/mL; IC50, ZIKV RVPs [5]: 0.7 ng/mL; IC50, DENV1 neutralization (flow cytometry) [6]: 10.1 ng/mL"
"Z054 (BRA138_94) (antibody, V domains shown) VH: QLQLQESGPRLVKPSETLFLTCTVSGDSISSSSYFWGWIRQPPGKGLEWIGSISYSGSTYYNPSLKSRVTISVDTSKNQFSLKLSSVTAADTVVYYCAKHLYSSSWNIGSSFDSWGPGTLVTVSS VL: EIVLTQSPATLSLSPGERATLSCRASQSVSIYLAWYQQKPGQAPRLLIYDASSRATGIPARFSGSGSGTDFTLTISSLEPEDFAVYYCQQRSNWPVYTFGQGTKVEIK",–,–,–,binding result [7]: no binding; binding result [8]: no binding
"Z040 (BRA12_81) (antibody, V domains shown) VH: EVQLLESGGGLVQPGGSLRLSCAASGFTFSTYAMSWVRQAPGKGLEWVSAISGSGRSTYYADSVKGRFTISRDNSKNTLYLQMNSLRGEDTAVYYCAKSSGGHNWNYVDYYYGMDVWGQGTTVTVSS VL: DIQLTQSPSFLSASVGDRVTITCRASQGISSYLAWYQQKPGKAPKLLIYAASTLQSGVPSRFSGSGSGTEFTLTISSLQPEDFATYYCQQLNSYPVTFGPGTKVDIK",–,–,–,binding result [7]: no binding; binding result [8]: no binding
"Z004 (MEX18_89) (antibody, V domains shown, also called biotin-Z004 (biotinylated form)) VH: EVQLLESGGGLVQPGGSLRLTCATSGFTFRDYAMSWVRQAPGKGLEWVSSYSGIDDSTYYADSVKGRFTISRDNSKSTLSLHMNSLRAEDSALYFCAKDRGPRGVGELFDSWGQGTLVTVSS VL: DIQMTQSPSTLSASVGDRVTITCRASQSISKWLAWYQQKPGKAPKLLIYTTSTLKSGVPSRFSGSGSGTEFTLTISSLQPDDFATYYCQHFYSVPWTFGQGTKVEIK",no binding (tested: 10 µg/ml),no binding (tested: 10 µg/ml),no binding (tested: 10 µg/ml),"IC50, plaque reduction neutralization test (PRNT) [4]: 2.2 ng/mL; IC50, DENV1 luciferase RVPs [6]: 1.6 ng/mL; IC50, flow cytometry using authentic DENV1 [6]: 16.4 ng/mL"
"Z001 (MEX18_21) (antibody, V domains shown) VH: EVQLLESGGGLVQPGGSRRLSCATSGFSFDTYAMSWLRQAPGKGLEWVSSFSGLDDSTYYADSVKGRFTISRDNSKNTLYLQMNSLRAEDTAIYYCAKDRGPRGIGELFDFWGQGTLVTVSS VL: DIQMTQSPSTLSASVGDRVTITCRASQSISRWLAWYQQKPGKAPKLLIYKTSTLKSEVPSRFSGSGSGTEFTLTISSLQPDDFATYYCQHFHSVPWTFGQGTKVEIK",no binding (tested: 10 µg/ml),no binding (tested: 10 µg/ml),no binding (tested: 10 µg/ml),–
"Z028 (MEX84_p4-53) (antibody, V domains shown) VH: EVQLLESGGGLVQPGGSLRLSCAASGFTFSAYAMSWVRQAPGKGLEWVSSINGHSDSTYFADSVKGRFTISRDNSKNTLYLQMNSLRAEDTALYYCAKDRLREGIGELFHSWGQGTLVTVSS VL: DIQMTQSPSTLSASIGDRVTITCRASQSITPWLAWYQQKPGKAPKFLIYQTSILESGVPSRFSGSGSGTEFTLTISSLQPDDFATYYCQHYHSYPWTFGQGTKVEIK",no binding (tested: 10 µg/ml),no binding (tested: 10 µg/ml),no binding (tested: 10 µg/ml),–
"Z032 (BRA112_24) (antibody, V domains shown) VH: EVQLLESGGRLVQPGGSLTLSCAASGFPFSTYAMSWLRQAPGKGLEWVSGITGDSGSTYYAASVKGRFTISRDNSKNTLYLQMNSLTADDTAVYYCAKDRLHSGLGELFSYWGQGTLVTVSS VL: DIQMTQSPSTLSASVGDRVNITCRASQSINQWLAWYQQKPGKAPKFLMYKASTLETGVPSRFSGSGSGTEFTLTISSLQPDDFATYYCQHYFSYPWTFGQGTKVEIK",–,–,–,EC50 [9]: 19.5 ng/mL
"Z035 (BRA112_71) (antibody, V domains shown) VH: EVQLLESGGGLIQPGGSLRLSCAASGFTFSSYAMSWVRQAPGKGLEWVSGISGSGGASDNGASRYYADSVKGRFSISRDNSKNTVYLQMNSLRAEDTAVYYCAKDRLSGGFGELFQKWGQGTLVTVSS VL: DIQMTQSPSTLAASVGDRVTITCRASQNINSWLAWYQQKPGKAPKFLIYKASTLESGAPSRFSGSGSGTEFTLTISSLQPDDFATYYCQHYYSYPYTFGQGTKVEIK",no binding (tested: 10 µg/ml),no binding (tested: 10 µg/ml),no binding (tested: 10 µg/ml),–
"Z044 (BRA138_46) (antibody, V domains shown) VH: QVQLVQSGAEVKKPGASVKVSCKASGYTFTSTYIHWVRQAPGQGLEWMGIINPSSSNTNYAQKFQGRVTMTRDTSTSTVYMELSSLRSEDTAVYYCARDFGGYSSSSVSDAFDIWGQGTMVTVSS VL: QSALTQPASVSGSPGQSITISCTGTSSDVGSFNLVSWYQQHPGKAPKLIIYEVSKRPSGVSNRFSGSKSGNTASLTISGLQAEDEVHYYCCSYAGSSRFVFGTGTKVTVL",–,–,–,binding result [7]: no binding; binding result [8]: no binding
